In IntAct's records for PubMed 18653891:

B1: Serine/threonine-protein kinase BSK1 (Arabidopsis thaliana (Mouse-ear cress)), Q944A7 (parent)
chain: MGCCQSLFSGDNPLGKDGVQPQPLSQNNHGGATTADNGGSGGASGVGGGGGGGGIPSFSEFSFADLKAATNNFSSDNIVSESGEKAPNLVYKGRLQNRRWIAVKKFTKMAWPEPKQFAEEAWGVGKLRHNRLANLIGYCCDGDERLLVAEFMPNDTLAKHLFHWENQTIEWAMRLRVGYYIAEALDYCSTEGRPLYHDLNAYRVLFDEDGDPRLSCFGLMKNSRDGKSYSTNLAYTPPEYLRNGRVTPESVTYSFGTVLLDLLSGKHIPPSHALDMIRGKNIILLMDSHLEGKFSTEEATVVVELASQCLQYEPRERPNTKDLVATLAPLQTKSDVPSYVMLGIKKQEEAPSTPQRPLSPLGEACSRMDLTAIHQILVMTHYRDDEGTNELSFQEWTQQMKDMLDARKRGDQSFREKDFKTAIDCYSQFIDVGTMVSPTVFGRRSLCYLLCDQPDAALRDAMQAQCVYPDWPTAFYMQSVALAKLNMNTDAADMLNEAAQLEEKRQRGGRGS

Variants of: B1
Conditions: with bri1_arath BRI1, O22476
Sequence of bri1_arath BRI1, O22476 (O22476 whole entry): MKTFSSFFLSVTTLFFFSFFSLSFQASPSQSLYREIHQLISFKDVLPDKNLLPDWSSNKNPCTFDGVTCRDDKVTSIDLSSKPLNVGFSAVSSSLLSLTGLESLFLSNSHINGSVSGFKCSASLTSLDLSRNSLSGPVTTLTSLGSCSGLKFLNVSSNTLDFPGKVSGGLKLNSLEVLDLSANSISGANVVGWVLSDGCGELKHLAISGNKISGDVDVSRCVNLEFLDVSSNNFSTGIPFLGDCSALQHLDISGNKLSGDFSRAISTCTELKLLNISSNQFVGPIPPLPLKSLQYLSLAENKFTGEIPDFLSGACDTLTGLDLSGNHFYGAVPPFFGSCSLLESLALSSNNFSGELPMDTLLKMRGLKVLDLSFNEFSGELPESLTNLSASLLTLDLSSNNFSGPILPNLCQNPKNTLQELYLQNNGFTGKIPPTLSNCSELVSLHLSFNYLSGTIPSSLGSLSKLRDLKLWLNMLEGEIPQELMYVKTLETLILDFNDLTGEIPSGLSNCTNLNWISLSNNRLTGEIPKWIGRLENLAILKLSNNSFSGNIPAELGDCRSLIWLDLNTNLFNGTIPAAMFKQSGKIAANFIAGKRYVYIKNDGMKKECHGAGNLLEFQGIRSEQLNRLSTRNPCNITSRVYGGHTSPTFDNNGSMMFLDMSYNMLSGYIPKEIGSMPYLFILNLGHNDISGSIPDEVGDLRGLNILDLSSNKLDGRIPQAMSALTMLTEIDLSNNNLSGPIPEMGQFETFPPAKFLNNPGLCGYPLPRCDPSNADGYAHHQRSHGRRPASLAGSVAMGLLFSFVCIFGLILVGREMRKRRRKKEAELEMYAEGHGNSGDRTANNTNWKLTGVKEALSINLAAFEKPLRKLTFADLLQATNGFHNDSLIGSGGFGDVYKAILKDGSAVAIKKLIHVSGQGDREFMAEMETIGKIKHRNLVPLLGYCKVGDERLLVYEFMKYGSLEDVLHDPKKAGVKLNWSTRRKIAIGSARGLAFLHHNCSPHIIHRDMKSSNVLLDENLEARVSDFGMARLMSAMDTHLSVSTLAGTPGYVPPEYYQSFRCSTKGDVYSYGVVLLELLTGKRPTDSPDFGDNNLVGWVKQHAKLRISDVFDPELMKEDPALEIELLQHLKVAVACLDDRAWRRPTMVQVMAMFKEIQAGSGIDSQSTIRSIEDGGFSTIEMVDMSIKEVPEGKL

effect of a mutation on the interaction | Variant
decreasing interaction | S230A
